The text below walks through data of patent publication US20050260210A1 (FACET BIOTECH, published 2005).

The test concerns the target T1, mouse α5β1 integrin (mouse, UniProt P11688 45-1053; P09055 21-798).
T1 construct: Named as present on mouse xenograft tumor vasculature
In words: not described.

T1 sequence (P11688 45-1053, chain 1 of 2): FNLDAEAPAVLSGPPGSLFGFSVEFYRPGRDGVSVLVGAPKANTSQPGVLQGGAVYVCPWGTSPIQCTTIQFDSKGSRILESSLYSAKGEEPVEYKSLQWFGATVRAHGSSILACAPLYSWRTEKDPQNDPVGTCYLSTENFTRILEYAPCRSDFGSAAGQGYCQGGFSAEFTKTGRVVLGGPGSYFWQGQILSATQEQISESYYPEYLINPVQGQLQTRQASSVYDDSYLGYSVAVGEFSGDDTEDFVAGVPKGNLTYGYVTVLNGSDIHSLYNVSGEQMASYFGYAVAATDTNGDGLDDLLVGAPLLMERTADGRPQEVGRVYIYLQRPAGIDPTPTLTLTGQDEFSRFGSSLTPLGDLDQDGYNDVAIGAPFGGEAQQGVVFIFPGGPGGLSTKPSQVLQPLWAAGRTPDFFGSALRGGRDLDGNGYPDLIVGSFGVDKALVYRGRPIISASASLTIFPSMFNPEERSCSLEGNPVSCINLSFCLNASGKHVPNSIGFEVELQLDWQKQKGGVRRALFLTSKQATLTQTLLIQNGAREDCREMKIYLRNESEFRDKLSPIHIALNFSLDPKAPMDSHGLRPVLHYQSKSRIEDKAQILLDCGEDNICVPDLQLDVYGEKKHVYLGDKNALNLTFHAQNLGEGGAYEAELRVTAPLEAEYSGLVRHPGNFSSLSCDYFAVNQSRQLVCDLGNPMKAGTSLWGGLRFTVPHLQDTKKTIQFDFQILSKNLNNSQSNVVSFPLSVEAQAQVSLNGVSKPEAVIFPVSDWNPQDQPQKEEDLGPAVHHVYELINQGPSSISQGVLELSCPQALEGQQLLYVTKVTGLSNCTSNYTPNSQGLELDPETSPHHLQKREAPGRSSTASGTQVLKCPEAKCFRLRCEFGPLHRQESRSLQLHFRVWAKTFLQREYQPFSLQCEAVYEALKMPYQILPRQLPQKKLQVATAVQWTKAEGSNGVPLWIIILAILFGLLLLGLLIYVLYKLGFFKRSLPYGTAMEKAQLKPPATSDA
T1 sequence (P09055 21-798, chain 2 of 2): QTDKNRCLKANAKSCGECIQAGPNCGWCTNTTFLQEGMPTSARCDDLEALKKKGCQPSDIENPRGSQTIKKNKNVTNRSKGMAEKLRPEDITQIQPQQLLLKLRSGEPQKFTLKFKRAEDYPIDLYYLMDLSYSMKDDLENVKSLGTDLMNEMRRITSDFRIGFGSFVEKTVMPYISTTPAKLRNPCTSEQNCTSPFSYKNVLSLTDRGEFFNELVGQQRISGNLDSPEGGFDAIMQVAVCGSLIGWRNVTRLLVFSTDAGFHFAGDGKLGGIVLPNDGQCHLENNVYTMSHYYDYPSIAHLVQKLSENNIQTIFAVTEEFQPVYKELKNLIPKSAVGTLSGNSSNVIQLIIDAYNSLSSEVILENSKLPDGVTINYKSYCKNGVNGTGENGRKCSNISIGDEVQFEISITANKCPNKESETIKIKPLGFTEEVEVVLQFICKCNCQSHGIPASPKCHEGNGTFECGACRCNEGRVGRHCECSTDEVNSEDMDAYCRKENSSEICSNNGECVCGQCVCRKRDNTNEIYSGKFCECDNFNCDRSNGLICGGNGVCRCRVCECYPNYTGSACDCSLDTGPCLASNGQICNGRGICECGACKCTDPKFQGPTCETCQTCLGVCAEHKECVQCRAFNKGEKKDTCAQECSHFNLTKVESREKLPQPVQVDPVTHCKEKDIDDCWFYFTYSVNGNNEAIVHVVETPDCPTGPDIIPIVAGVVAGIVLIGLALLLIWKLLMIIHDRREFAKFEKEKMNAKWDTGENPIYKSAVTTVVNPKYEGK

B1: IIA1, anti-α5β1 mouse antibody (antibody, mouse IgG1, V domains shown)
VH: QVQLKESGPGLVAPSQSLSITCTISGFSLTDYGVHWVRQPPGKGLEWLVVIWSDGSSTYNSALKSRMTIRKDNSKSQVFLIMNSLQTDDSAMYYCARHGTYYGMTTTGDALDYWGQGTSVTVSS
VL: QIVLTQSPAIMSASLGERVTMTCTASSSVSSNYLHWYQQKPGSAPNLWIYSTSNLASGVPARFSGSGSGTSYSLTISSMEAEDAATYYCHQYLRSPPTFGGGTKLEIK
notes: also called mouse anti-α5β1 antibody
Consider B1, for which the binding result was “no binding”.

B2: M200, chimeric anti-α5β1 antibody (antibody, IgG4, V domains shown)
VH: B1 VH
VL: B1 VL
notes: also called volociximab
As to B2, the binding result is “no binding”.
